We go through two molecules from patent US20050245445A1 (BURNHAM INSTITUTE FOR MEDICAL RESEARCH, published 2005).

For test [1], the target named is T1, PDGFRβ in RIP1-Tag2 mouse tumor tissue (mouse, UniProt P05622 32-1098).
T1 construct: whole, on cells; Endogenous receptor in tissue, seen only by immunostaining; also called PDGFRb (CD140b)
In words: co-localization of i.v. injected peptide with anti-PDGFRβ immunostaining in RIP1-Tag2 tumor sections. The method, then: For immunohistochemistry, frozen slides were pre-incubated with blocking buffer (1×PNB from NEN Biosciences) for one hour, washed several times in 1×PBS and incubated with the primary antibody of interest overnight at 4° C. The cell-specific antibodies used were rat monoclonal anti-mouse CD31 (1:200; BD Pharmingen), rat monoclonal anti-mouse MECA-32 (1:200; BD Pharmingen), rabbit polyclonal anti-mouse NG2 (1:200; Chemicon), and rat monoclonal anti-mouse PDGFRb (CD140b) (1:200; eBioscience). The corresponding secondary antibodies; Cy-3 donkey anti-rabbit IgG and Rhodamine Red donkey anti-rat IgG (Jackson ImmunoResearch), were used at a 1:200 dilution and incubated for one hour at room temperature. The following species-matched immunoglobulins were used as negative controls; rabbit IgG (Vector Laboratories) and rat IgG (Jackson ImmunoResearch) at a 1:200 dilution. The slides were washed several times in 1×PBS and mounted in Vectashield Mounting Medium with DAPI (Vector Laboratories). Hematoxylin and eosin (H&E) staining was performed for histological grading of adjacent sections by standard methods, and lesions were graded as previously described (Lopez and Hanahan, 2002).
In contrast, no binding above background was detected toward cells transfected with vascular endothelial growth factor receptor 2 (VEGFR2) (FIG. 5A).

Test [2] concerns the target PDGFRβ overexpressed on transfected 293T cells. The test is described as follows: phage binding to transfected 293T cells, 2 hours at 4° C., bound phage counted by plaque assay.

Where no end group is shown, it is not given here.

T1 sequence (P05622 32-1098): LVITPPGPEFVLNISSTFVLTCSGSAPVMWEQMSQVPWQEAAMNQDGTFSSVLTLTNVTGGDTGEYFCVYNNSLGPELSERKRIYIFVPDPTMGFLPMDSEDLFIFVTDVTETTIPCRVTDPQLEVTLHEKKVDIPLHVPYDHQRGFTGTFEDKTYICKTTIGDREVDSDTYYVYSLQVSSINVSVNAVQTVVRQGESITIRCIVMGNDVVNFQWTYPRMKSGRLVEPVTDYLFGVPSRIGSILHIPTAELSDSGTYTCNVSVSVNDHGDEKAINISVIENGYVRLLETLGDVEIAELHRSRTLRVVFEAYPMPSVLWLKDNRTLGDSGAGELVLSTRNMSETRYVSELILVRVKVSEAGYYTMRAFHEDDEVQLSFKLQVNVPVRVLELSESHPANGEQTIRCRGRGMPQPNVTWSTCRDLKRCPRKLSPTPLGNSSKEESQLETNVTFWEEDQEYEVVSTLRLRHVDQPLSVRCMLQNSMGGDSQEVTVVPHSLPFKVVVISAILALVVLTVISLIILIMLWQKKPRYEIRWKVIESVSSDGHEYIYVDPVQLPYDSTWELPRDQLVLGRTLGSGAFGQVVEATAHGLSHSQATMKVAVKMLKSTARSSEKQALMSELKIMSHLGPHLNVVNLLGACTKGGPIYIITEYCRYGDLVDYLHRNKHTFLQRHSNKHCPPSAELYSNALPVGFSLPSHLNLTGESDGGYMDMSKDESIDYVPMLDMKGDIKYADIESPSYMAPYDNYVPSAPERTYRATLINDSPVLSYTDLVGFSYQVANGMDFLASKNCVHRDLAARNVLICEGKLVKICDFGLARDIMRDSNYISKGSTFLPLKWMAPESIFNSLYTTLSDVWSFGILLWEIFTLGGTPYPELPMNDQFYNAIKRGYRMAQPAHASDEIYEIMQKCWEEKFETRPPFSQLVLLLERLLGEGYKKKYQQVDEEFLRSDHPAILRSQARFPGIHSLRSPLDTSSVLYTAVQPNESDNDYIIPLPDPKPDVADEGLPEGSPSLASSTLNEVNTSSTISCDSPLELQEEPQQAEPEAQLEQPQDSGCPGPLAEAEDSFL

B1: fluorescein-conjugated RGR peptide (CRGRRST) (peptide)
peptide: CRGRRST
modifications: also: fluorescein-conjugated (site of attachment not given here)
notes: Synthetic linear peptide made by Fmoc chemistry and injected intravenously into RIP1-Tag2 mice; also called RGR-FITC; fluorescein-conjugated CRGRRST peptide
Regarding B1, the binding result in test [1] was “binds”.
For CRGRRST [RGR phage (T7 phage displaying the RGR peptide CRGRRST)], the fold binding to PDGFRβ-transfected cells over non-transfected cells in test [2] was found to be 20 fold.
